Source: publication PMC6314816 (Journal of the American Chemical Society, 2018)

What was measured:
Assay in all cases: spectrophotometric NADPH oxidation, initial rates
Type in all cases: biochemical, Thermocrispum municipale
Details in all cases: NADPH co-substrate
CC(=O)CCc1ccccc1 = test system: CC(=O)CCc1ccccc1
CC(=O)Cc1ccccc1 = test system: CC(=O)Cc1ccccc1
[1] = substrate: CC(=O)CCc1ccccc1; remark: listed apart in the source
[2] = substrate: CC(=O)Cc1ccccc1; remark: listed apart in the source

Work on “TmCHMO (Thermocrispum municipale; F434G/L145G/L437T/T435F)” yielded a Km (CC(=O)CCc1ccccc1) of 0.024 ± 0.0041 mM and a kcat (CC(=O)CCc1ccccc1) of 0.16 ± 0.0028 s⁻¹.

Work on “TmCHMO (Thermocrispum municipale; L437A/W492Y)” yielded a Km (CC(=O)Cc1ccccc1) of 1.5 ± 0.46 mM and a kcat (CC(=O)Cc1ccccc1) of 0.16 ± 0.014 s⁻¹.

B1: TmCHMO (Thermocrispum municipale) (protein)
chain: MSTTQTPDLDAIVIGAGFGGIYMLHKLRNDLGLSVRVFEKGGGVGGTWYWNKYPGAKSDTEGFVYRYSFDKELLREYDWTTRYLDQPDVLAYLEHVVERYDLARDIQLNTEVTDAIFDEETELWRVTTAGGETLTARFLVTALGLLSRSNIPDIPGRDSFAGRLVHTNAWPEDLDITGKRVGVIGTGSTGTQFIVAAAKMAEQLTVFQRTPQYCVPSGNGPMDPDEVARIKQNFDSIWDQVRSSTVAFGFEESTVEAMSVSESERQRVFQQAWDKGNGFRFMFGTFCDIATNPEANAAAAAFIRSKIAEIVKDPETARKLTPTDLYAKRPLCNEGYYETYNRDNVSLVSLKETPIEEIVPQGVRTSDGVVHELDVLVFATGFDAVDGNYRAMNLRGRDGRHINEHWTEGPTSYLGVTKAGFPNMFMILGPNGPFTNLPPSIEAQVEWISDLIDKATREGLTTVEPTADAEREWTETCAEIANMTLFPKADSWIFGANIPGKRHAVMFYLGGLGNYRRQLADVADGGYRGFQLRGERAQAVA
Molecule B1 has a Km [1] of 12 ± 7.0 mM, a kcat [1] of 0.31 ± 0.11 s⁻¹ and a Km [2] of 0.86 ± 0.060 mM. It also gave a kcat [2] of 0.73 ± 0.014 s⁻¹.
